Where two headings read alike, the source gives them in different places. Non-standard residues stand in square brackets, D forms with d. No end group written: not given here. Nle = CCCC[C@H](N)C(=O)O
Tests used:
Flt-1 = Flt-1 (human, UniProt P17948 27-756, limits assumed); experiment: plate ELISA, growth factor coated
Procedure: (§1) Binding specificity of each peptide was established by competition ELISA. […] After blocking with block buffer (PBS with 0.5% BSA and 0.05% TWEEN®20) for 2 hours at room temperature, the receptor-Fc fusions or biotinylated receptors were serially diluted using assay buffer (PBS with 0.5% BSA and 0.05% TWEEN®20) and incubated for 1 hour at room temperature. […] Competition ELISA was conducted in an identical fashion as described above except after blocking, a mixture of serially diluted peptide containing a constant concentration of receptor-Fc fusion or biotinylated receptor (concentration of receptor was set to EC₆₀) was added and incubated for 1 hour. All recombinant human proteins and antibodies were purchased from R &D Systems (Minneapolis, Minn.).

Flt-4 = molecular target: T1, Flt-4 (human, UniProt P35916 25-776, limits assumed); experiment: plate ELISA, growth factor coated
T1 sequence (looked up): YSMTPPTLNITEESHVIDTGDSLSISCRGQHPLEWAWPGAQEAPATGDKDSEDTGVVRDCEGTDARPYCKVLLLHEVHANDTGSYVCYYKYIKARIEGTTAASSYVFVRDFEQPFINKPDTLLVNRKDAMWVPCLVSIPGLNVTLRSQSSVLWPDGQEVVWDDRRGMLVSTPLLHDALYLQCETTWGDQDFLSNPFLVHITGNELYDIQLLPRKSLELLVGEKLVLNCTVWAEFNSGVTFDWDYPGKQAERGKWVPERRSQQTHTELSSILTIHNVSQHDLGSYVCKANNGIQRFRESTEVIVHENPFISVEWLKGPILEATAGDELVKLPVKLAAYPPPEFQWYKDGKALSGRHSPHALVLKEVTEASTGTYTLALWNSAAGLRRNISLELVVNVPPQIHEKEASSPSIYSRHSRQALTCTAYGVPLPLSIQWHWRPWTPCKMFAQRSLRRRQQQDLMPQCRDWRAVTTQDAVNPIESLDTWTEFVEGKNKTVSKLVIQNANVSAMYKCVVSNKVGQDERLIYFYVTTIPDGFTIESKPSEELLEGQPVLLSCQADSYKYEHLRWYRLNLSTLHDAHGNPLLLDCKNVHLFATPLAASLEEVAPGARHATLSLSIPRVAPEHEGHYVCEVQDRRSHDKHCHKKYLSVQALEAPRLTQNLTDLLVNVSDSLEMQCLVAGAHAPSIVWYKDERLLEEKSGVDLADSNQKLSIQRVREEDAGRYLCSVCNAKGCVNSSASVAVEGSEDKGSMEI
Procedure: as §1

hVEGF-A (human), P15692 = molecular target: T2, hVEGF-A (human), P15692; experiment: cell-based or functional assay
T2 chain: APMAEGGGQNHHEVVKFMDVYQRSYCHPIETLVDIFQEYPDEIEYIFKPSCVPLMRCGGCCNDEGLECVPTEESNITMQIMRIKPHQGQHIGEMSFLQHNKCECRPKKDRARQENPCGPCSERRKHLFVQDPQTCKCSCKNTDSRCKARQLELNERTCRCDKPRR

hVEGF-A [1] = molecular target: T3, hVEGF-A (human, UniProt P15692-4 27-191, limits assumed); experiment: phage competition ELISA, soluble CKP
T3 construct: also called human VEGF-A; WT

human VEGF-A 165 = human VEGF-A 165 (human, UniProt P15692-4 27-191); experiment: SPR
Procedure: (§2) Depending on the format of the assay either a streptavidin sensor (SA) or a dextran-coated (CM5) sensor was utilized as described below.
(§3) Reaction was then quenched by addition of 10 molar excess of Glycine pH 8.0 and the sample was buffer exchanged into PBS using an Amicon 0.5 mL 3000 MWCO ultra-centrifugal filters (EMD Millipore). The biotinylation state of the protein was verified by LC-MS analysis. Biotinylated VEGF-A was then captured on the surface until a resonance unit (RU) signal of about ˜400. For immobilization of VEGF-A on CM5 sensor, the surface was first activated with a mixture of N-ethyl-N′-(3-dimethylaminopropyl)carbodiimide hydrochloride and N-hydroxysuccinimide (EDC/NHS) according to the supplier instructions. VEGF-A was then diluted into coupling buffer (0.1 M Acetate Buffer, pH 5.0) and injected until the signal reached about ˜400 RU followed by a wash with 1 M ethanolamine pH 8.0 to quench remaining activated sites.

hVEGF-A (8-109) [2] = molecular target: T4, hVEGF-A (8-109) (human, UniProt P15692 214-315); experiment: SPR
T4 sequence (looked up): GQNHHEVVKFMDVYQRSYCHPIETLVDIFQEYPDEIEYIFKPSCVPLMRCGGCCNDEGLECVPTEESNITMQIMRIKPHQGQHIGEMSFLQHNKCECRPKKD
Procedure: as §2, §3

rat VEGF-A = molecular target: T5, rat VEGF-A (rat, UniProt P16612-2 27-190, limits assumed); experiment: SPR
T5 construct: also called rVEGF
T5 sequence (looked up): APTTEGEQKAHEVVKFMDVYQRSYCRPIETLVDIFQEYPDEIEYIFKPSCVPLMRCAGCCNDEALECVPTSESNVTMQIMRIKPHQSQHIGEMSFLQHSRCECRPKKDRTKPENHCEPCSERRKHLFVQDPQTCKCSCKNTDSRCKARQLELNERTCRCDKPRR
Procedure: as §2, §3

mouse VEGF-A 164 = molecular target: T6, mouse VEGF-A 164 (mouse, UniProt Q00731-2 27-190); experiment: SPR
T6 construct: also called mouse 164
T6 sequence (looked up): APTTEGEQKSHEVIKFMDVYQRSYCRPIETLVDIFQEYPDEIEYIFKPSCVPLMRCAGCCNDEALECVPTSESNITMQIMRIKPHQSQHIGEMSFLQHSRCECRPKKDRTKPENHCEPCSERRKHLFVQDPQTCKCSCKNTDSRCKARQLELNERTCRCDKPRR
Procedure: as §2, §3

rabbit VEGF-A = molecular target: T7, rabbit VEGF-A (rabbit, UniProt G1T1L9 1-398); experiment: SPR
T7 sequence: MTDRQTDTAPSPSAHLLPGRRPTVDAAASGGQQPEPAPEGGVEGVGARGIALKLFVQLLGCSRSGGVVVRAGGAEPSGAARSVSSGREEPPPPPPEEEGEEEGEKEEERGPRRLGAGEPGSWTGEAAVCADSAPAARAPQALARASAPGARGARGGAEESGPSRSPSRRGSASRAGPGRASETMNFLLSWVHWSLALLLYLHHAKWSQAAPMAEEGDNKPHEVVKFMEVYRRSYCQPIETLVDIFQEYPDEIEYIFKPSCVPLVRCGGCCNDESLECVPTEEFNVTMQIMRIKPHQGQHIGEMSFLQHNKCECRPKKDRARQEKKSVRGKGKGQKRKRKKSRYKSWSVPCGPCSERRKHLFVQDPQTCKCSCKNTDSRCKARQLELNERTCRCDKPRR
Procedure: as §2, §3

hVEGF-A (8-109) [3] = molecular target: T4, hVEGF-A (8-109); experiment: spot phage ELISA
Summary of the method: (§4)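 Phage clones from four selection rounds were grown overnight at 37 °C with M13-KO7 helper phage. Bound phage was detected with anti-M13-HRP and TMB, with binding to BSA alone run in parallel as background.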

hVEGF-A [4] = molecular target: T3, hVEGF-A; experiment: KDR-VEGF competition ELISA
hVEGF-A [5] = molecular target: T3, hVEGF-A; experiment: cell-based or functional assay
hVEGF-A [6] = molecular target: T3, hVEGF-A; experiment: cell-based or functional assay; remark: listed apart in the source
hVEGF-A (8-109) [7] = molecular target: T4, hVEGF-A (8-109); experiment: SPR; remark: listed apart in the source
Procedure: as §2, §3

hVEGF-A Q89A = molecular target: T8, hVEGF-A Q89A (human, UniProt P15692-4 34-135, Q89A); experiment: SPR
T8 construct: position probably counted on the mature protein
T8 sequence (looked up): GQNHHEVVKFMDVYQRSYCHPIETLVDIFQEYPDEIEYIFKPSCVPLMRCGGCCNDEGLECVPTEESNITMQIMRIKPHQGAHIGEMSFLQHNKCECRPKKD
Procedure: as §2, §3

hVEGF-A K48A = molecular target: T9, hVEGF-A K48A (human, UniProt P15692-4 34-135, K48A); experiment: SPR
T9 construct: position probably counted on the mature protein
T9 sequence (looked up): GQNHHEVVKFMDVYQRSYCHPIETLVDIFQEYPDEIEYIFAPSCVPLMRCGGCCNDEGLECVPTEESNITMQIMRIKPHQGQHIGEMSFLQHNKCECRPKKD
Procedure: as §2, §3

hVEGF-A [8] = molecular target: T3, hVEGF-A; experiment: SPR
Procedure: as §2, §3

hVEGF-A Y21A = molecular target: T10, hVEGF-A Y21A (human, UniProt P15692-4 34-135, Y21A); experiment: SPR
T10 construct: position probably counted on the mature protein
T10 sequence (looked up): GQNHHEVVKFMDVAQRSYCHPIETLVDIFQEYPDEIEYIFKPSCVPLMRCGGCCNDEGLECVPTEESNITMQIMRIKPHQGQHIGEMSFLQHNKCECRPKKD
Procedure: as §2, §3

hVEGF-A [9] = molecular target: T3, hVEGF-A; experiment: cell-based or functional assay; remark: listed apart in the source
hVEGF-A (8-109) [10] = molecular target: T4, hVEGF-A (8-109); experiment: spot phage ELISA; remark: listed apart in the source
Summary of the method: as §4

hVEGF-A [11] = molecular target: T3, hVEGF-A; experiment: SPR; remark: listed apart in the source
Procedure: as §2, §3

hVEGF-A (8-109) [12] = molecular target: T4, hVEGF-A (8-109); experiment: phage competition ELISA (clone on phage; the concentration varied on the axis is that of hVEGF (8-109))
[13] = molecular target: T11, hVEGF-A (8-109) (human), P15692; experiment: spot phage ELISA; details: remark: other sources report otherwise
T11 chain: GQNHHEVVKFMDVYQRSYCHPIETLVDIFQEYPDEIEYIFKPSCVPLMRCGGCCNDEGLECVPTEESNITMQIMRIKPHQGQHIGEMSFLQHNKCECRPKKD

EETI-II, sequence (chain, as listed by the source): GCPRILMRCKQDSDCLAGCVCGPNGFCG
Flt-1, sequence (P17948 27-756 limits assumed): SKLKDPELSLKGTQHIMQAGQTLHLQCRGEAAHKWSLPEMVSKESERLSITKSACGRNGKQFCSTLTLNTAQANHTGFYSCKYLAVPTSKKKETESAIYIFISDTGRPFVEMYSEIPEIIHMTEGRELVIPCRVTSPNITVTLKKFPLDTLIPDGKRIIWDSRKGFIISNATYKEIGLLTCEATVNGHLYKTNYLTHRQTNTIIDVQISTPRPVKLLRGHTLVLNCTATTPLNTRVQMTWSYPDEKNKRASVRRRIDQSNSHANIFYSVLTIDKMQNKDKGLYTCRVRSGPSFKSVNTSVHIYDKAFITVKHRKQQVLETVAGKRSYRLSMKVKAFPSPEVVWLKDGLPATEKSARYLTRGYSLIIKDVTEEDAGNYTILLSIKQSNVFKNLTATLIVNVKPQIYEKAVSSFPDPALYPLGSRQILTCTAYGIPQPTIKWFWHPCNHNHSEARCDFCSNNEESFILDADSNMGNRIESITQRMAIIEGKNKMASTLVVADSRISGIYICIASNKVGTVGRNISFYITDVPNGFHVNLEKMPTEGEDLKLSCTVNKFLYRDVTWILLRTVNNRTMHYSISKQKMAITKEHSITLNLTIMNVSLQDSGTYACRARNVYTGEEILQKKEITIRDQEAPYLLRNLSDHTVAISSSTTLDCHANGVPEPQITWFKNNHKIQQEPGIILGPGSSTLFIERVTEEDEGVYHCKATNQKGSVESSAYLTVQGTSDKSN

Row | Molecule | Kd (human VEGF-A 165) [nM] | Kd (hVEGF-A (8-109) [2]) [nM] | Kd (rat VEGF-A) [nM] | Kd (mouse VEGF-A 164) [nM] | Kd (rabbit VEGF-A) [nM] | IC50 (hVEGF-A [4]) [nM] | Cellular IC50 (hVEGF-A [6]) [nM] | Kd (hVEGF-A Q89A) [nM] | Kd (hVEGF-A K48A) [nM] | Kd (hVEGF-A [8]) [nM] | Kd (hVEGF-A Y21A) [nM] | further results
1 | trypsin |  |  |  |  |  |  |  |  |  |  |  | trypsin protease activity, peptide substrate cleavage assay (EETI-II): Unlike EETI-II, ... do not inhibit trypsin protease activity
2 | PIGF-2 (ligand, human, UniProt P49763-3 19-170, looked up, also called P1Gf-2; P1GF) LPAVPPQQWALSAGNGSSEVEVVPFQEVWGRSYCRALERLVDVVSEYPSEVEHMFSPSCVSLLRCTGCCGDENLHCVPVETANVTMQLLKIRSGDRPSYVELTFSQHVRCECRPLREKMKPERRRPKGRGKRRREKQRPTDCHLCGDAVPRR |  |  |  |  |  |  |  |  |  |  |  | binding result (Flt-1): binds
3 | VEGF-C (ligand, human, UniProt P49767 103-227, looked up) TEETIKFAAAHYNTEILKSIDNEWRKTQCMPREVCIDVGKEFGVATNTFFKPPCVSVYRCGGCCNSEGLQCMNTSTSYLSKTLFEITVPLSQGPKPVTISFANHTSCRCMSKLDVYRQVHSIIRR |  |  |  |  |  |  |  |  |  |  |  | binding result (Flt-4): binds
4 | VEGF-D (ligand, human, UniProt O43915 93-201, looked up) FYDIETLKVIDEEWQRTQCSPRETCVEVASELGKSTNTFFKPPCVNVFRCGGCCNEESLICMNTSTSYISKQLFEISVPLTSVPELVPVKVANHTGCKCLPTAPRHPYS |  |  |  |  |  |  |  |  |  |  |  | binding result (Flt-4): binds
5 | GCNI[Nle]LPFWGCGRDFECLAGCVCQYYQSCG (designed binder, cysteine pairing not given here) [9.54.90.M5.Nle] |  |  |  |  |  |  |  |  |  |  |  | Cellular IC50 (hVEGF-A (human), P15692): 1.95 nM
6 | GCDVMQPYWGCKQDSDCLAGCVCHWYNSCG (designed binder, also called EM63) [VEGF_CKP9.63] | 382 | 281 | 524 | 289 | 311 | 10.8 | 140 | 2000 | 28.4 | 100 | 585 | IC50 (hVEGF-A [1]): 146 nM; ELISA (hVEGF-A (8-109) [3]): 2; S/N vs BSA (hVEGF-A (8-109) [3]): 29.7; Cellular IC50 (hVEGF-A [5]): 140 nM; Kd (hVEGF-A (8-109) [7]): 100 nM
7 | GCDVMQPYWGCGPDIDCLAGCVCHWYNSCG (designed binder, also called L2.9.63.12) [VEGF_CKP9.63.12] | 4.32 | 3.2 | 5.74 | 13.1 | 2.54 | 0.7 | 1.83 | 36.5 | 0.33 | 1.07 | 9.84 | Cellular IC50 (hVEGF-A [9]): 1.83 nM; FOLD [..] [..] TO VARIANT 9.54.90 (hVEGF-A [9]): 0.74 fold; ELISA (hVEGF-A (8-109) [10]): 2.6; S/N vs BSA (hVEGF-A (8-109) [10]): 39.9
8 | GCNIMLPFWGCKQDSDCLAGCVCQYYQSCG (designed binder, also called EM54) [VEGF_CKP9.54] | 190 | 176 | 176 | 250 | 133 | 5.8 | 188 | 1880 | 22 | 55 | 317 | Kd (hVEGF-A [11]): 44 nM; IC50 (hVEGF-A [1]): 450 nM; kon (hVEGF-A (8-109) [2]): 1.26e+06 M⁻¹ s⁻¹; ELISA (hVEGF-A (8-109) [3]): 2.1; S/N vs BSA (hVEGF-A (8-109) [3]): 28.4; IC50 (read off the curve) (hVEGF-A (8-109) [12]): ~4 nM; Cellular IC50 (hVEGF-A [5]): 188 nM
9 | GCQRTQPFWGCKQDSDCLAGCVCRWYQSCG (designed binder) [VEGF_CKP9.22] |  |  |  |  |  |  |  |  |  |  |  | ELISA [13]: 1.2; S/N vs BSA [13]: 17.2
